Measured values taken from patent US20100310588A1.

Target: BDC2.5 T cell receptor (transgenic TCR alpha/beta of BDC2.5 TCR Tg mice) (mouse)
Test: cell-based or functional assay

Substance: p31-I-A^g7 multimer (recombinant MHC class II I-A^g7 presenting the BDC2.5 TCR mimotope peptide 1040-31) (peptide-MHC)
- fold expansion of antigen-specific cells during the 10 day culture (lowest seeding, 0.001%): 5000 fold
